Assay results from US20220112288A1 (published 2022).
Changes are numbered by the printed parent chain.

B1: 75110_03I23A (antibody, V domains shown)
VH: QVQLQESGPGLVKPSETLSLTCTASGGSITSYYWNWIRQPAGKGLEWIGRIYTSGSTNYNPSLKSRVTMSVDTSKNQFSLKLSSVTAADTAVYYCARDPGYSDAFNIWGQGTMVTVSS
VL: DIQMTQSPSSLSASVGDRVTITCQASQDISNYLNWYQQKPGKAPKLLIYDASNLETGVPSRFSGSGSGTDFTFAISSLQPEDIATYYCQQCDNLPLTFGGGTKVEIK
notes: Non-clonal AlivaMab Mouse Kappa hybridoma supernatant, captured by anti-mouse IgG Fc (human V regions, mouse Fc)
B2: 75110_07N04A (antibody, V domains shown)
VH: B1 VH with T23S, A24V, G27V, I29S, Y32F, N35S, E46D, N106A
VL: not shown
notes: as for B1
B3: 75110_04G02A (antibody, V domains shown)
VH: not shown
VL: DIVMTQSPDSLAVSLGERATINCKSSQSVLYSSNNKNYLAWYQQKPGQPPKLLFYWASARESGVPDRFSGSGSGTDFTLTISSLQAEDVALYYCQQYFGSFPTFGQGTKLEIK
notes: as for B1
B4: 75110_03I08A (antibody, V domains shown)
VH: QVQLQESGPGLVKPSETLSLTCTVSGGSISSYYWSWIRQPPGKGLEWIGYIYYSGSTNYNPSLKSRVTISVDTSKNQFSLKLSSVTAADTAVYYCAREGEQWFYGLDVWGQGTTVTVSS
VL: EIVLTQSPGTLSLSPGERATLSCRASQSVSSTYLAWYQQKPGQAPRLLIYGSSSRATGIPDRFSGSGSGTDFTLTISRLEPEDFAVYYCQQYGNSFPITFGQGTRLEIK
notes: as for B1
B5: 75110_07J24A (antibody, V domains shown)
VH: QAQLQESGPGLVKPSETLSLTCTVSGGSISSYYYNWIRQPAGKGLEWIGRIYTSGRTDYNPSLKSRVTMSADTSKNQFSLKLSSVTAADTAVYYCARDEGPTDAFDIWGQGTMVTVSS
VL: DIVMTQTPLSLPVTPGEPASISCRSSQSLLDSDDGNTYLDWYLQKPGQSPHLLIYTLSYRASGVPDRFSGSGSGSDFTLKISRVEAEDVGVYYCMQRIEFPFTFGPGTKVDIK
notes: as for B1
B6: 75110_14P08A (antibody, V domains shown)
VH: QVQLQESGPGLVKSSETLSLTCTDSGDSIRSYYWNWIRQPAGKGLEWIGRIYASGSTNYNPSLKSRVIMSADTSKNRFSLKLSSVTAADTAVYYCARDGGVGDSLDYWGQGTLVTVSS
VL: B5 VL with H51Q, S75T
notes: Tested as clonal hybridoma supernatant from AlivaMab Mouse Kappa mice: human variable regions, human kappa, mouse Fc
B7: 75110_05E05A (antibody, V domains shown)
VH: QVQLQESGPGLVKPSETLSLTCTVSGGSIGSYYWSWIRQPAGKGLEWIGRIYTSGSTNYNPSLKSRVTMSFDTSKNQFSLKLNSVTAADTAVYYCATDGGVGDSLDYWGQGTLVTVSS
VL: B5 VL with H51Q, S75T, R97H
notes: as for B1
B8: 75110_02E22A (antibody, V domains shown)
VH: QVQLQESGPGLVKPSETLSLTCTVSGGSISSFYWSWIRQPAGKGLEWIGRIYTSGSTNYNPSLKSRVTMSVDTSKNQFSLKLSSVTAADTAVYYCARELEKRNYYGMDVWGQGTTVTVSS
VL: DIQMTQSPSSLSASVGDRVTITCQASHDISNYLNWYQQKPGKAPKLLIFDASTLETGVPSRFSGSGSGTYFTFTIRSLQPEDIATYYCQQYDSLPLTFGGGTKVEIK
notes: as for B1
B9: 75110_04D20A (antibody, V domains shown)
VH: B8 VH with G26N, S31D, F32Y, V67I, K81E, K101R, R102Y, N103Y, Y104F, M107V
VL: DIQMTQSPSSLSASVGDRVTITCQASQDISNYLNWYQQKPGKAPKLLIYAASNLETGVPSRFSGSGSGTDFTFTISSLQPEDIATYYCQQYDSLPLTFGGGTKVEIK
notes: as for B1
B10: 75110_06K03A (antibody, V domains shown)
VH: B8 VH with S31T, F32Y, Y52N, N58T, K101R, R102Y, N103Y
VL: B8 VL with H27Q, F49Y, D50Y, T53I, Y70D, R76S
notes: as for B1
B11: 75110_08A13A (antibody, V domains shown)
VH: EVQLVESGGGLVQPGGSLRLSCAASGFIFSSYWMSWVRQAPGKGLEWVANIKQDGSEKYYMDSVKGRFTISRDNAKNSLYLQMNSLRAEDTAVYYCARDNSYYYYGMDVWGQGTTVTVSS
VL: AIQMTQSPSSLSASVGDRVTITCRASQGIRDDLGWYQQKPGKAPKLLIFAASSLQSGVPSSFSGSGSGTDFTLTISSLQPEDFATYYCLHHYNYPYTFGQGTKLEIK
notes: as for B1
B12: 75110_05A11A (antibody, V domains shown)
VH: EVQLVESGGGLVKPGGSLTLSCAASGFTFSNTWMSWVRQAPGKGLEWVGRIKSKIDGGTTDYAAPVKGRFTISRDDSKNTLYLQMNSLKTEDTAVYYCTTSGTYSSGWGLFDYWGQGTLVTVSS
VL: DIQMTQSPSSLSASVGDRVTITCQASQDISNYLNWYQQKPGKAPKLLIYDTSNLEAGVPSRFSGSGSGTHFTLTISSLQPEDIATYYCQQYDNLPFTFGGGTRVEIK
notes: as for B1
B13: 75110_06C16A (antibody, V domains shown)
VH: QVQLQESGPGLVTPSETLSLSCTVSGGSISDYYWSWIRQPGGKGLEWIGRIYSSGSTNYNPSLKSRVTMSVDTSKNQFSLKLSSVTAADTAVYFCARDREDYYYYGMDVWGQGTTVTVSS
VL: B8 VL with F49Y, D50A, T53N, Y70D, T72S, R76S, S93H
notes: as for B1
B14: 75110_04H17A (antibody, V domains shown)
VH: QVQLQESGPGLVKPSETLSLTCTVSGGSISTYYWSWIRQSAGKGLEWIGRIYTSERPNYNPSLKSRVTMSVDTSKNQFSLKLNSVSAADTAVYYCARELERPYYYGMDVWGQGTTVTVSS
VL: B8 VL with I2V, D17G, H27Q, F49Y, D50Y, T53N, Y70D, R76S, I83F, S93N
notes: as for B1
B15: 75110_02I18A (antibody, V domains shown)
VH: EVQVVESGGGLVQPGGSLRLSCAASGFTFSSYDMHWVRQATGKGLEWVSTIGTAGDTYYPGSVKGRFTISRENAKNSLYLQMNSLRAGDTAVYYCARGGYYYYGMDVWGQGTTVTVSS
VL: EIVLTQSPGTLSLSPGERATLSCRASQSVSSSYLAWYQQKPGQSPRLLIHGASSRATGIPDRVSGSGSGTDFTLTISRLEPEDFAVYYCQQYGSSPFTFGPGTKVDIK
notes: as for B1
B16: 75110_05F19A (antibody, V domains shown)
VH: B15 VH with V4L, S31N, M34V, A40P, Y101D, M105L
VL: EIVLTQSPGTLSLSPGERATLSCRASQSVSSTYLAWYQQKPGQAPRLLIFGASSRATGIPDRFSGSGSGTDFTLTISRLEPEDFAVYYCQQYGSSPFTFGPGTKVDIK
notes: as for B1
B17: 75110_08K12A (antibody, V domains shown)
VH: B15 VH with V4L, K75E, V92L, G99D
VL: B15 VL with S32T, S44A, H50Y, S54N, V63F, Y92F, S94T
notes: as for B1
B18: 75110_05G15A (antibody, V domains shown)
VH: QVQLQESGPGLVKPSQTLSLTCTVSGGSISSGGYFWSWIRQHPGKGLEWIGCIYYSGSTYYIPSLKSRVTISVDTSKNQFSLKLRSVTAADTAVYYCARDGYDYWYFDLWGRGTLVTVSS
VL: not shown
B19: 75110_05E13A (antibody, V domains shown)
VH: EVQLVESGGDLVKPGGSLRLSCAASGFSFSNAWMSWVRQAPGKGLEWVGRVESKTDGGTTDYAAPVKDRFTISRDDSKYTLYLQMNSLKTEDSAVYYCTIGGGFGLELYGFFDYWGQGTLVTVSS
VL: DIQMTQSPSTLSASVGDRVTITCRASQSISSWLAWYQQKPGKAPMLLIYKASSLESGVPSRFSGSGSGTEFTLTISSLQPDDFATYYCLQYNSYYTFGQGTKLEIK
notes: as for B1
B20: 75110_02K11A (antibody, V domains shown)
VH: QVQLQESGPGLVKPSQTLSLTCTVSGGSISSGFYYWTWIRQHPGKGLEWIGYISYSGNTYYNPSFKSRLTISVDTSKSQFSLKLSSVTAADTAVYYCARDRPSNFDAFDIWGQGTMVTVSS
VL: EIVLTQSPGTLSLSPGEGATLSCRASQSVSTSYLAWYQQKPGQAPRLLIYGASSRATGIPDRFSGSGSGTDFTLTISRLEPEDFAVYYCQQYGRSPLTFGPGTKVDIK
notes: as for B1
B21: 75110_01C18A (antibody, V domains shown)
VH: EVQLVESGGGLIQPGGSLRLSCAASGFTVSSNYMNWVRQAPGKGLEWVSVIYAGDNTYSADSVKGRFTISRDNSNNTLCLQMNSLRAEDTAVYYCAREGGTTGAFDIWGQGTMVTVSS
VL: DIQMTQSPSSVSASVGDRVTITCRASQGINSWLAWYQQKPGKAPKLLIYAASSLQSGVPSRFSGSGSGTDFTLTISSLQPEDFATYYCQQGNSFPYTFGQGTKLEIK
notes: as for B1
B22: 75110_01L08A (antibody, V domains shown)
VH: QVQLQESGPGLVKPSETLSLTCTVSGGSISHYYWSWIRQPPGKGLEWIGYIHYSGTTNYNPSLKSRVTISVDTSKNQLSLKLRSVTAADTAVYYCARDQGFSSGGMDVWGQGTTVTVSS
VL: not shown
notes: as for B1

Assays:
[1] = molecular target: T1, Recombinant human CD4 (R&D Systems, Cat. 10327-CD) (human, UniProt P01730 26-390, limits assumed); test: BLI (Octet Red384), non-clonal supernatant on AMC sensor, 100 nM human CD4, 1:1 local fit;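 also: hybridoma antibodies captured from supernatant, single CD4 concentration as analyte, association and dissociation phases fitted together, giving single-point kinetic estimates per supernatant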
T1 construct: Bought soluble recombinant protein used as analyte at 100 nM; also called huCD4

[2] = molecular target: T1, Recombinant human CD4 (R&D Systems, …); test: BLI (Octet Red384), non-clonal supernatant on AMC sensor, 100 nM human CD4
human CD4 on human PBMCs = molecular target: T2, human CD4 on human PBMCs (human, UniProt P01730 26-458); test: FACS, clonal hybridoma supernatant on human PBMCs
T2 construct: whole, on cells; the CD4-positive gate was set with the control antibodies OKT4 and RPA-T4; also called hCD4

| Binder | Kd [1] [nM] | koff [1] [s⁻¹] | kon [1] [M⁻¹ s⁻¹] | Response [2] | % CD4 Stain (human CD4 on human PBMCs) [%] | gMFI of CD4+ (human CD4 on human PBMCs) [gMFI] |
| --- | --- | --- | --- | --- | --- | --- |
| B1 | 8.6 | 0.0012 | 140000 | 0.18 |  |  |
| B2 | < 0.001 | < 1e-07 | 140000 | 0.1 |  |  |
| B3 | 0.76 | 0.00017 | 220000 | 0.21 |  |  |
| B4 | < 0.001 | < 1e-07 | 37000 | 0.07 |  |  |
| B5 | < 0.001 | < 1e-07 | 77000 | 0.14 |  |  |
| B6 |  |  |  |  | 28.3 | 58500 |
| B7 | 0.95 | 0.00013 | 140000 | 0.24 |  |  |
| B8 | 20 | 0.0042 | 210000 | 0.18 |  |  |
| B9 | 0.88 | 0.00013 | 150000 | 0.2 |  |  |
| B10 | 6.8 | 0.0019 | 280000 | 0.14 |  |  |
| B11 | 4.4 | 0.001 | 230000 | 0.35 |  |  |
| B12 | 3.2 | 0.00055 | 170000 | 0.15 |  |  |
| B13 | 9.7 | 0.0024 | 250000 | 0.07 |  |  |
| B14 | 9 | 0.00097 | 110000 | 0.16 |  |  |
| B15 | 9 | 0.0033 | 370000 | 0.16 |  |  |
| B16 | 0.032 | 4.4e-06 | 140000 | 0.18 |  |  |
| B17 | 4.5 | 0.0031 | 700000 | 0.11 |  |  |
| B18 | < 0.001 | < 1e-07 | 78000 | 0.24 |  |  |
| B19 | 7.4 | 0.0012 | 160000 | 0.33 |  |  |
| B20 | 17 | 0.0022 | 130000 | 0.14 |  |  |
| B21 | 16 | 0.0013 | 86000 | 0.25 |  |  |
| B22 | 4.1 | 0.00037 | 91000 | 0.09 |  |  |
